The target in series [1] is Klebsiella pneumoniae PriB (full-length, 104-amino acid protein) (Klebsiella pneumoniae (strain MGH78578)). As to the kind of experiment: SEC; each protein applied alone at approximately 3.4 g/l to a HiPrep HR 16/10 sephacryl S-100 column, 0.35 ml/min, 10 mM Tris-HCl pH 8, 10% glycerol, 0.5 M NaCl, 1 mM beta-mercaptoethanol; column calibrated with protein standards of known molecular weight. (In general: Size exclusion chromatography separates by hydrodynamic size, large species first.)

Series [2] deals with PriB (Klebsiella pneumoniae MGH78578, UniProt A6THB2 1-104). As to the kind of experiment: fluorescence anisotropy; apparent Kd; 1 mM Mg2+; 20 mM Tris-HCl pH 8, 50 mM NaCl, 4% glycerol, 1 mM MgCl2, 1 mM beta-mercaptoethanol, 0.1 mg/ml BSA, 1 nM DNA, 25 C. The note with it: protein: recombinant; tags: N-terminal His6 (pET28b); chain copies: 2; label: 3'-fluorescein; single strand.
Sequence of PriB (A6THB2 whole entry): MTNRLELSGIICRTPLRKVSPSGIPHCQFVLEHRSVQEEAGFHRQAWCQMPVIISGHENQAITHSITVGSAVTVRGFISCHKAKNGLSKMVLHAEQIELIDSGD

Sequence of Klebsiella pneumoniae PriB (full-length, 104-amino acid protein) (natural protein) (A6THB2 whole entry): as above

As usually defined, the stoichiometry N is the number of molecules, sites or subunits per partner or assembly. For the molecule “Klebsiella pneumoniae PriB (full-length, 104-amino acid protein) (natural protein)”, the stoichiometry N in series [1] turned out to be 2.
Take TAGCAATGTAATCGT (ssDNA) [15-mer]: in series [2], the Kd amounted to 50 ± 3 nM.
Still for that read-out and setting: for GCCGTGATCACCAATGCAGATTGACGAACCTTTGCTCCAGTAACC (ssDNA) [45-mer] the value was 62 ± 14 nM; for GCGTGGGTAATTGTGCTTCAATGGACTGAC (ssDNA) [30-mer], 45 ± 7 nM.

The values above are taken from PMC3169591.
